In patent US8795990B2, “Recombinant enzyme with altered feedback sensitivity” (Metabolic Explorer, priority 2004, dated 2014):
In brackets after ≈: the same amount, converted by molar mass.

Columns and labels:
[1] = target: homoserine transsuccinylase enzyme MetA (Escherichia coli, UniProt P07623); settings: in words; cited from earlier work
[2] = system: E. coli; settings: growth rate of E. coli; cited from earlier work
[3] = system: homoserine transsuccinylase; experiment: Homoserine transsuccinylase activity in vitro in crude extracts, succinylhomoserine quantified by GC-MS, with or without methionine and S-adenosylmethionine; settings: for MetA activity of clones in pTRC99A: alleles cloned in pTRC99A with an alanine between amino acid 1M and 2P
Protocol: The activity of homoserine transsuccinylase was determined in vitro E. coli strains carrying either wild-type or mutant-enzymes were cultured in rich medium with 2.5 g/l glucose and harvested at late log phase. Cells were resuspended in cold potassium phosphate buffer and sonicated on ice (Branson sonifier, 70W). After centrifugation, proteins contained in the supernatants were quantified (Bradford, 1976).
Ten μl of the extracts were incubated for 30 minutes at 25° C. with 30 mM homoserine and 4 mM succinyl-CoA. Methionine and/or S-adenosylmethionine were added as indicated. The succinylhomoserine produced by homoserine transsuccinylase enzymes was quantified by GC-MS after derivatization with tert-butyldimethylsilyltrifluoroacetamide (TBDMSTFA). L-Serine[1-13C] was included as an internal standard.

[4] = system: S-adenosylmethionine synthetase; experiment: S-adenosylmethionine synthetase (MAT) activity in vitro in crude extracts, FIA-MS/MS; format: biochemical, E. coli; settings: 10 mM methionine, 10 mM ATP, 37° C., 30 minutes
[5] = Methionine 0 mM, S-adenosylmethionine 0 mM, rich medium extracts
[6] = Methionine 0 mM, S-adenosylmethionine 0.1 mM
[7] = Methionine 0 mM, S-adenosylmethionine 1 mM
[8] = Methionine 10 mM, S-adenosylmethionine 0 mM
[9] = Methionine 10 mM, S-adenosylmethionine 0.1 mM
[10] = Methionine 10 mM, S-adenosylmethionine 1 mM

homoserine transsuccinylase enzyme MetA, sequence (P07623 whole entry): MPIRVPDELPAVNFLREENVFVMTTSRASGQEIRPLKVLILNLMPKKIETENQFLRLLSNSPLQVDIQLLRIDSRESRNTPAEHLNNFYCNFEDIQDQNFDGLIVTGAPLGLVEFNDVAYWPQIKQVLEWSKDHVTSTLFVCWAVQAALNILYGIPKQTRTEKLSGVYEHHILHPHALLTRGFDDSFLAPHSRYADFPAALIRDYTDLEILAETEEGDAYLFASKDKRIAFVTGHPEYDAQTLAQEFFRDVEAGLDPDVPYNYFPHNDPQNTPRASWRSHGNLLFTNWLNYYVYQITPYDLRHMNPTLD

## CSCC[C@](C)(N)C(=O)O [α-methylmethionine]
[1]
  inhibition of homoserine transsuccinylase enzyme MetA: potent inhibitor
[2]
  minimal concentration for a maximal inhibition: 5 µg/mL
  minimal inhibitory concentration: 1 µg/mL (≈ 6.13 µM)

B1: metA: wild-type E. coli homoserine transsuccinylase (metA gene, strain MG1655) (protein, UniProt P07623 2-309, looked up)
Homoserine …: PIRVPDELPAVNFLREENVFVMTTSRASGQEIRPLKVLILNLMPKKIETENQFLRLLSNSPLQVDIQLLRIDSRESRNTPAEHLNNFYCNFEDIQDQNFDGLIVTGAPLGLVEFNDVAYWPQIKQVLEWSKDHVTSTLFVCWAVQAALNILYGIPKQTRTEKLSGVYEHHILHPHALLTRGFDDSFLAPHSRYADFPAALIRDYTDLEILAETEEGDAYLFASKDKRIAFVTGHPEYDAQTLAQEFFRDVEAGLDPDVPYNYFPHNDPQNTPRASWRSHGNLLFTNWLNYYVYQITPYDLRHMNPTLD
[3]; [5]
  Specific activity: 36.7 mUI/mg proteins
[3]; [6]
  Specific activity: 27.9 mUI/mg proteins
[3]; [7]
  Specific activity: 4.7 mUI/mg proteins
[3]; [8]
  Specific activity: 0.4 mUI/mg proteins
[3]; [9]
  Specific activity: 0.2 mUI/mg proteins
[3]; [10]
  Specific activity: 0.1 mUI/mg proteins
[3]
  MetA activity of clones in pTRC99A: vary low

B2: metA*11: mutant homoserine transsuccinylase allele, CAG exchanged for GAG, Q replaced by E (Q64E) (protein, UniProt P07623 2-309, looked up, variant Q64E)
Homoserine …: PIRVPDELPAVNFLREENVFVMTTSRASGQEIRPLKVLILNLMPKKIETENQFLRLLSNSPLEVDIQLLRIDSRESRNTPAEHLNNFYCNFEDIQDQNFDGLIVTGAPLGLVEFNDVAYWPQIKQVLEWSKDHVTSTLFVCWAVQAALNILYGIPKQTRTEKLSGVYEHHILHPHALLTRGFDDSFLAPHSRYADFPAALIRDYTDLEILAETEEGDAYLFASKDKRIAFVTGHPEYDAQTLAQEFFRDVEAGLDPDVPYNYFPHNDPQNTPRASWRSHGNLLFTNWLNYYVYQITPYDLRHMNPTLD
[3]; [5]
  Specific activity: 19.2 mUI/mg proteins
[3]; [6]
  Specific activity: 21.7 mUI/mg proteins
[3]; [7]
  Specific activity: 18.5 mUI/mg proteins
[3]; [8]
  Specific activity: 18.7 mUI/mg proteins
[3]; [9]
  Specific activity: 16.9 mUI/mg proteins
[3]; [10]
  Specific activity: 2.7 mUI/mg proteins
[3]
  MetA activity of clones in pTRC99A: vary low

B3: MetK* T227I (protein, UniProt P0A817 2-384, looked up, variant T227I)
S-adenosylmethionine synthase: AKHLFTSESVSEGHPDKIADQISDAVLDAILEQDPKARVACETYVKTGMVLVGGEITTSAWVDIEEITRNTVREIGYVHSDMGFDANSCAVLSAIGKQSPDINQGVDRADPLEQGAGDQGLMFGYATNETDVLMPAPITYAHRLVQRQAEVRKNGTLPWLRPDAKSQVTFQYDDGKIVGIDAVVLSTQHSEEIDQKSLQEAVMEEIIKPILPAEWLTSATKFFINPIGRFVIGGPMGDCGLTGRKIIVDTYGGMARHGGGAFSGKDPSKVDRSAAYAARYVAKNIVAAGLADRCEIQVSYAIGVAEPTSIMVETFGTEKVPSEQLTLLVREFFDLRPYGLIQMLDLLHPIYKETAAYGHFGREHFPWEKTDKAQLLRDAAGLK
[4]
  MAT (S-adenosylmethionine synthetase activity): 4.9 mUI/mg prot

B4: MetK* G115S (protein, UniProt P0A817 2-384, looked up, variant G115S)
S-adenosylmethionine synthase: AKHLFTSESVSEGHPDKIADQISDAVLDAILEQDPKARVACETYVKTGMVLVGGEITTSAWVDIEEITRNTVREIGYVHSDMGFDANSCAVLSAIGKQSPDINQGVDRADPLEQSAGDQGLMFGYATNETDVLMPAPITYAHRLVQRQAEVRKNGTLPWLRPDAKSQVTFQYDDGKIVGIDAVVLSTQHSEEIDQKSLQEAVMEEIIKPILPAEWLTSATKFFINPTGRFVIGGPMGDCGLTGRKIIVDTYGGMARHGGGAFSGKDPSKVDRSAAYAARYVAKNIVAAGLADRCEIQVSYAIGVAEPTSIMVETFGTEKVPSEQLTLLVREFFDLRPYGLIQMLDLLHPIYKETAAYGHFGREHFPWEKTDKAQLLRDAAGLK
[4]
  MAT (S-adenosylmethionine synthetase activity): 0.4 mUI/mg prot

B5: MetK* S59N + G105S (protein, UniProt P0A817 2-384, looked up, variant S59N G105S)
S-adenosylmethionine synthase: AKHLFTSESVSEGHPDKIADQISDAVLDAILEQDPKARVACETYVKTGMVLVGGEITTNAWVDIEEITRNTVREIGYVHSDMGFDANSCAVLSAIGKQSPDINQSVDRADPLEQGAGDQGLMFGYATNETDVLMPAPITYAHRLVQRQAEVRKNGTLPWLRPDAKSQVTFQYDDGKIVGIDAVVLSTQHSEEIDQKSLQEAVMEEIIKPILPAEWLTSATKFFINPTGRFVIGGPMGDCGLTGRKIIVDTYGGMARHGGGAFSGKDPSKVDRSAAYAARYVAKNIVAAGLADRCEIQVSYAIGVAEPTSIMVETFGTEKVPSEQLTLLVREFFDLRPYGLIQMLDLLHPIYKETAAYGHFGREHFPWEKTDKAQLLRDAAGLK
[4]
  MAT (S-adenosylmethionine synthetase activity): 2.9 mUI/mg prot

B6: MetK* R161C + P235S (protein, UniProt P0A817 2-384, looked up, variant R161C P235S)
S-adenosylmethionine synthase: AKHLFTSESVSEGHPDKIADQISDAVLDAILEQDPKARVACETYVKTGMVLVGGEITTSAWVDIEEITRNTVREIGYVHSDMGFDANSCAVLSAIGKQSPDINQGVDRADPLEQGAGDQGLMFGYATNETDVLMPAPITYAHRLVQRQAEVRKNGTLPWLCPDAKSQVTFQYDDGKIVGIDAVVLSTQHSEEIDQKSLQEAVMEEIIKPILPAEWLTSATKFFINPTGRFVIGGSMGDCGLTGRKIIVDTYGGMARHGGGAFSGKDPSKVDRSAAYAARYVAKNIVAAGLADRCEIQVSYAIGVAEPTSIMVETFGTEKVPSEQLTLLVREFFDLRPYGLIQMLDLLHPIYKETAAYGHFGREHFPWEKTDKAQLLRDAAGLK
[4]
  MAT (S-adenosylmethionine synthetase activity): 0.7 mUI/mg prot

B7: MetK* P137L (protein, UniProt P0A817 2-384, looked up, variant P137L)
S-adenosylmethionine synthase: AKHLFTSESVSEGHPDKIADQISDAVLDAILEQDPKARVACETYVKTGMVLVGGEITTSAWVDIEEITRNTVREIGYVHSDMGFDANSCAVLSAIGKQSPDINQGVDRADPLEQGAGDQGLMFGYATNETDVLMPALITYAHRLVQRQAEVRKNGTLPWLRPDAKSQVTFQYDDGKIVGIDAVVLSTQHSEEIDQKSLQEAVMEEIIKPILPAEWLTSATKFFINPTGRFVIGGPMGDCGLTGRKIIVDTYGGMARHGGGAFSGKDPSKVDRSAAYAARYVAKNIVAAGLADRCEIQVSYAIGVAEPTSIMVETFGTEKVPSEQLTLLVREFFDLRPYGLIQMLDLLHPIYKETAAYGHFGREHFPWEKTDKAQLLRDAAGLK
[4]
  MAT (S-adenosylmethionine synthetase activity): 1.2 mUI/mg prot

B8: MetK* H189Y (protein, UniProt P0A817 2-384, looked up, variant H189Y)
S-adenosylmethionine synthase: AKHLFTSESVSEGHPDKIADQISDAVLDAILEQDPKARVACETYVKTGMVLVGGEITTSAWVDIEEITRNTVREIGYVHSDMGFDANSCAVLSAIGKQSPDINQGVDRADPLEQGAGDQGLMFGYATNETDVLMPAPITYAHRLVQRQAEVRKNGTLPWLRPDAKSQVTFQYDDGKIVGIDAVVLSTQYSEEIDQKSLQEAVMEEIIKPILPAEWLTSATKFFINPTGRFVIGGPMGDCGLTGRKIIVDTYGGMARHGGGAFSGKDPSKVDRSAAYAARYVAKNIVAAGLADRCEIQVSYAIGVAEPTSIMVETFGTEKVPSEQLTLLVREFFDLRPYGLIQMLDLLHPIYKETAAYGHFGREHFPWEKTDKAQLLRDAAGLK
[4]
  MAT (S-adenosylmethionine synthetase activity): 0.6 mUI/mg prot

B9: MetK* G105S (protein, UniProt P0A817 2-384, looked up, variant G105S)
S-adenosylmethionine synthase: AKHLFTSESVSEGHPDKIADQISDAVLDAILEQDPKARVACETYVKTGMVLVGGEITTSAWVDIEEITRNTVREIGYVHSDMGFDANSCAVLSAIGKQSPDINQSVDRADPLEQGAGDQGLMFGYATNETDVLMPAPITYAHRLVQRQAEVRKNGTLPWLRPDAKSQVTFQYDDGKIVGIDAVVLSTQHSEEIDQKSLQEAVMEEIIKPILPAEWLTSATKFFINPTGRFVIGGPMGDCGLTGRKIIVDTYGGMARHGGGAFSGKDPSKVDRSAAYAARYVAKNIVAAGLADRCEIQVSYAIGVAEPTSIMVETFGTEKVPSEQLTLLVREFFDLRPYGLIQMLDLLHPIYKETAAYGHFGREHFPWEKTDKAQLLRDAAGLK
[4]
  MAT (S-adenosylmethionine synthetase activity): 2.8 mUI/mg prot

B10: WT: wild-type E. coli S-adenosylmethionine synthetase (MetK) (protein, UniProt P0A817 2-384, looked up)
S-adenosylmethionine synthase: AKHLFTSESVSEGHPDKIADQISDAVLDAILEQDPKARVACETYVKTGMVLVGGEITTSAWVDIEEITRNTVREIGYVHSDMGFDANSCAVLSAIGKQSPDINQGVDRADPLEQGAGDQGLMFGYATNETDVLMPAPITYAHRLVQRQAEVRKNGTLPWLRPDAKSQVTFQYDDGKIVGIDAVVLSTQHSEEIDQKSLQEAVMEEIIKPILPAEWLTSATKFFINPTGRFVIGGPMGDCGLTGRKIIVDTYGGMARHGGGAFSGKDPSKVDRSAAYAARYVAKNIVAAGLADRCEIQVSYAIGVAEPTSIMVETFGTEKVPSEQLTLLVREFFDLRPYGLIQMLDLLHPIYKETAAYGHFGREHFPWEKTDKAQLLRDAAGLK
[4]
  MAT (S-adenosylmethionine synthetase activity): 7.5 mUI/mg prot

B11: MetK* H143T (protein, UniProt P0A817 2-384, looked up, variant H143T)
S-adenosylmethionine synthase: AKHLFTSESVSEGHPDKIADQISDAVLDAILEQDPKARVACETYVKTGMVLVGGEITTSAWVDIEEITRNTVREIGYVHSDMGFDANSCAVLSAIGKQSPDINQGVDRADPLEQGAGDQGLMFGYATNETDVLMPAPITYATRLVQRQAEVRKNGTLPWLRPDAKSQVTFQYDDGKIVGIDAVVLSTQHSEEIDQKSLQEAVMEEIIKPILPAEWLTSATKFFINPTGRFVIGGPMGDCGLTGRKIIVDTYGGMARHGGGAFSGKDPSKVDRSAAYAARYVAKNIVAAGLADRCEIQVSYAIGVAEPTSIMVETFGTEKVPSEQLTLLVREFFDLRPYGLIQMLDLLHPIYKETAAYGHFGREHFPWEKTDKAQLLRDAAGLK
[4]
  MAT (S-adenosylmethionine synthetase activity): 2.5 mUI/mg prot
